Data reported in US20230203202A1 (DRAGONFLY THERAPEUTICS, published 2023).

Key:
cynomolgus 5T4 = target: T1, cynomolgus 5T4 (cynomolgus monkey, UniProt Q4R8Y9 32-355, limits assumed); experiment: SPR
T1 construct: also called Cynomolgus monkey 5T4
T1 sequence (looked up): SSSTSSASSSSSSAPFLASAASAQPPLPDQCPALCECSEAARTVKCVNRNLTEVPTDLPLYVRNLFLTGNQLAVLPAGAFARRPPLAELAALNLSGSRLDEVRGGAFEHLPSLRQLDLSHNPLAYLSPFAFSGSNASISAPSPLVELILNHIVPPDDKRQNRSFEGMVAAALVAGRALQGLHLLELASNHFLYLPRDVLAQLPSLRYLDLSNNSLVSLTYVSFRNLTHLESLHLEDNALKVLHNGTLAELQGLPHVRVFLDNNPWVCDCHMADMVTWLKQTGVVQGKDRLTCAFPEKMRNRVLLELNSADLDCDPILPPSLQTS
Description: (§1) Briefly, SPR was performed using a Biacore 8K instrument at physiological temperature of 37° C. Briefly, human Fc specific antibodies were covalently immobilized at a density of about 8000-10000 resonance units (RU) on carboxy methyl dextran matrix of a CM5 biosensor chip to create an anti-hFc IgG chip. Samples were injected on the anti-hFc IgG chip at a flow rate of 10 μL/min for 60 seconds. Protein was serially diluted (300 nM-0.14 nM) in three-fold dilutions with running buffer and injected at a flow rate of 30 μl/min over the captured test articles. Association was monitored for 240-300 seconds, and dissociation was monitored for 300-900 seconds. Surfaces were regenerated between cycles with three pulses of 10 mM glycine-HCl (pH 1.7) injected for 20 seconds at 100 μL/min.

[1] = target: T2, human 5T4 (SPR and epitope mapping, construct not stated) (human, UniProt Q13641 32-355, limits assumed); experiment: SPR
T2 construct: also called h5T4
T2 sequence (looked up): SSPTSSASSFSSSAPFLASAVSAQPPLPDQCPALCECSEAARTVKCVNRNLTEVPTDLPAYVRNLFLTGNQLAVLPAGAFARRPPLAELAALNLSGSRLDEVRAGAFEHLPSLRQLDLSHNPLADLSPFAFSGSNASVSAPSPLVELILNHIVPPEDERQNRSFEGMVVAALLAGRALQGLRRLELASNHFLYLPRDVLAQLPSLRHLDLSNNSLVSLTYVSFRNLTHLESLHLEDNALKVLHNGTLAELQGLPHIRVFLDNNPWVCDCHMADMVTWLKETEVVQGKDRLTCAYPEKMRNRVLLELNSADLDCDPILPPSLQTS
Description: as §1

[2] = target: T2, human 5T4 (SPR and epitope mapping, …); experiment: SPR, h5T4 binding; sample stressed in Tris pH 9, 7 days 40 °C; heterogeneous binding, approximate value
[3] = target: T2, human 5T4 (SPR and epitope mapping, …); experiment: SPR, h5T4 binding; sample stressed in Tris pH 9, 7 days 40 °C
[4] = target: T3, human 5T4 on the cell surface (human, UniProt Q13641 32-420); experiment: cell-based or functional assay
T3 sequence (looked up): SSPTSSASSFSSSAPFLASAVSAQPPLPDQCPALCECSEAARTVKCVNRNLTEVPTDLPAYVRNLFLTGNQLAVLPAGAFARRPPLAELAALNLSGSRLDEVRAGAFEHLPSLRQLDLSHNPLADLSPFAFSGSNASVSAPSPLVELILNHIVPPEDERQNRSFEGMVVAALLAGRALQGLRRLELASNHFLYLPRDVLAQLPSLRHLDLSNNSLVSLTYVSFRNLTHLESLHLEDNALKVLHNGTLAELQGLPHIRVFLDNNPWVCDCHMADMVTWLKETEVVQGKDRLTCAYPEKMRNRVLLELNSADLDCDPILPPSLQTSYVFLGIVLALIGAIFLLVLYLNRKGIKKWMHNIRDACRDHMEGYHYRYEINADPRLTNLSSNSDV

Kd (cynomolgus 5T4): 8.3 nM
Kd [1]: 6.2 nM
Kd [2]: ~15.1 nM
koff [3]: 0.0016 s⁻¹
kon [3]: 110000 M⁻¹ s⁻¹
cynomolgus monkey NK cell activation in co-culture with H292 cells, EC50 [4]: 0.06 nM
cynomolgus monkey NK cell activation in co-culture with KYSE-30 cells, EC50 [4]: 0.06 nM
human NK cell activation in co-culture with H292 cells, EC50 [4]: 0.35 nM
human NK cell activation in co-culture with KYSE-30 cells, EC50 [4]: 0.13 nM
B1: AB1310/AB1783-TriNKET® (bispecific antibody, human IgG1, kappa)
chain: DIQLTQSPSSLSASVGDRVTITCRASQSVTTSNYNYMHWFQQKPGKAPKLLIKFASNLESGVPSRFSGSGSGTDFTLTISSLQPEDFATYYCQHSWEIPWTFGCGTKVEIKGGGGSGGGGSGGGGSGGGGSEVQLVESGGGLVKPGGSLRLSCAASRFTFSDFGMHWVRQAPGKCLEWVSYISSGSSTIYYADSVKGRFTISRDNAKNSLYLQMNSLRAEDTAVYYCASSQSYYRGTLDYWGQGTTVTVSSASDKTHTCPPCPAPELLGGPSVFLFPPKPKDTLMISRTPEVTCVVVDVSHEDPEVKFNWYVDGVEVHNAKTKPREEQYNSTYRVVSVLTVLHQDWLNGKEYKCKVSNKALPAPIEKTISKAKGQPREPRVYTLPPCRDELTKNQVSLTCLVKGFYPSDIAVEWESNGQPENNYKTTPPVLVSDGSFTLYSKLTVDKSRWQQGNVFSCSVMHEALHNHYTQKSLSLSPG
heavy: EVQLVESGGGLVKPGGSLRLSCAASGFTFSSYSMNWVRQAPGKGLEWVSSISSSSSYIYYADSVKGRFTISRDNAKNSLYLQMNSLRAEDTAVYYCARGAPIGAAAGWFDPWGQGTLVTVSSASTKGPSVFPLAPSSKSTSGGTAALGCLVKDYFPEPVTVSWNSGALTSGVHTFPAVLQSSGLYSLSSVVTVPSSSLGTQTYICNVNHKPSNTKVDKKVEPKSCDKTHTCPPCPAPELLGGPSVFLFPPKPKDTLMISRTPEVTCVVVDVSHEDPEVKFNWYVDGVEVHNAKTKPREEQYNSTYRVVSVLTVLHQDWLNGKEYKCKVSNKALPAPIEKTISKAKGQPREPQVCTLPPSRDELTENQVSLTCLVKGFYPSDIAVEWESNGQPENNYKTTPPVLDSDGSFFLYSWLTVDKSRWQQGNVFSCSVMHEALHNHYTQKSLSLSPG
light: DIQMTQSPSSVSASVGDRVTITCRASQGISSWLAWYQQKPGKAPKLLIYAASSLQSGVPSRFSGSGSGTDFTLTISSLQPEDFATYYCQQGVSFPRTFGGGTKVEIKRTVAAPSVFIFPPSDEQLKSGTASVVCLLNNFYPREAKVQWKVDNALQSGNSQESVTEQDSKDSTYSLSSTLTLSKADYEKHKVYACEVTHQGLSSPVTKSFNRGEC
notes: also called AB1310-TriNKET®; AB1783 10F10 F3′ LH H(T62S) CHO opt
